In US20050074865:

target: recombinant human TNFα (RDI) (UniProt P01375)
Sequence (P01375 77-233): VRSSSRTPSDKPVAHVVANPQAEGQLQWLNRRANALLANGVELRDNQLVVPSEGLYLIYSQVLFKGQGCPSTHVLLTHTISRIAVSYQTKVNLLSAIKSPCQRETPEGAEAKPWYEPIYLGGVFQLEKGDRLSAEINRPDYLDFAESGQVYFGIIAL

Enterokinase, sequence (P98072 2-800): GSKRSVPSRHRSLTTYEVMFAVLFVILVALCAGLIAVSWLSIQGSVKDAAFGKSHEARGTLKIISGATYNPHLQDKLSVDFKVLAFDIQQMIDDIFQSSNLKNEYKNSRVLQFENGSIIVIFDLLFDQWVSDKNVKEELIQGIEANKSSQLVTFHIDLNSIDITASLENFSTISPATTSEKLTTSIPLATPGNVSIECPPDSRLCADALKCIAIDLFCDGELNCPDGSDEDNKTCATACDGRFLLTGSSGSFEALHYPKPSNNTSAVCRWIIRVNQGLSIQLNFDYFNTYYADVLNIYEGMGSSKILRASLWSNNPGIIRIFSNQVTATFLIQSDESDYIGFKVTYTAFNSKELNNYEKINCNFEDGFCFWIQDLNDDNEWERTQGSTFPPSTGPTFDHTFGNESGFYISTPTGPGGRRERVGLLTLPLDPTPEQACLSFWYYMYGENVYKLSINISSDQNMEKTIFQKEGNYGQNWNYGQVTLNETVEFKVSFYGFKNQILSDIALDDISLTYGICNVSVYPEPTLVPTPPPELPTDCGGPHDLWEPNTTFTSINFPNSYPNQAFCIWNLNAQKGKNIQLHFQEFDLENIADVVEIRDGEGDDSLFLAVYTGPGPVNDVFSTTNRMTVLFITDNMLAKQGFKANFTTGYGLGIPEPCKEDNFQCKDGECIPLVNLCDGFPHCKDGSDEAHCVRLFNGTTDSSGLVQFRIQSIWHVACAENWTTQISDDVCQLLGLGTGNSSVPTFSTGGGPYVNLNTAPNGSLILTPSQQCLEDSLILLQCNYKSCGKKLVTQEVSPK
Enterokinase, sequence (P98072 801-1035): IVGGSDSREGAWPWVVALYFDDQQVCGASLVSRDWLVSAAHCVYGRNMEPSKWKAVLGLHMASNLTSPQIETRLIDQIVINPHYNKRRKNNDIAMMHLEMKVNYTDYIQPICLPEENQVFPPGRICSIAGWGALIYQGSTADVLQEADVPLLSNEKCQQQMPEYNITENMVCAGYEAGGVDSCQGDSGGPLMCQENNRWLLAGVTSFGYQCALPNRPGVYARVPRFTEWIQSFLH

Row | Substance | inactivation of TNFα bioactivity, L929 cytotoxicity bioassay after overnight digestion | proteolytic activity towards TNFα and effect in the L929 bioassay
1 | ADAM 10 | ADAM 10 (column: Proteases that did not inactivate TNF) | –
2 | Enterokinase | Enterokinase (column: Proteases that did not inactivate TNF) | enterokinase has no proteolytic activity towards TNFα and no effect in the L929 bioassay
3 | Furin | Furin (column: Proteases that did not inactivate TNF) | –
4 | Kallikrein5 | Kallikrein5 (column: Proteases that did not inactivate TNF) | –
5 | MMP3 | MMP3 (column: Proteases that did not inactivate TNF) | –
6 | MT5-MMP | MT5-MMP (column: Proteases that did not inactivate TNF) | –
7 | Plasmin | Plasmin (column: Proteases that did not inactivate TNF) | –
8 | Urokinase | Urokinase (column: Proteases that did not inactivate TNF) | –
